Experimental data from patent US20220009979A1 (Alexion, published 2022).

Target: T1, Purified C3d (Quidel, San Diego, Calif.) (UniProt P01024 1002-1303, biotinylated via sulfo-NHS-LC linkage)
T1 construct: domain: C3d; also called immobilized C3d
Experiment: Octet BLI; biotinylated C3d immobilized on streptavidin biosensors, construct in solution at 2 uM, 600 s association, 1200 s dissociation

T1 sequence (P01024 1002-1303 limits assumed): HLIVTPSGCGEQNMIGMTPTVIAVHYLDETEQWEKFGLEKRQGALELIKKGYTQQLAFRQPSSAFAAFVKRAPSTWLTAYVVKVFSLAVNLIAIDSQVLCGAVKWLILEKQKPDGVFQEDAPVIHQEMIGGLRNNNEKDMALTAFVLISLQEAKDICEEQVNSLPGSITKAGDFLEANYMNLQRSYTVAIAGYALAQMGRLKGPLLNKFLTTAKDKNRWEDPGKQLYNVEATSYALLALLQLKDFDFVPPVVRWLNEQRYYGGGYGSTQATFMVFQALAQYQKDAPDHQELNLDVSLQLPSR

Kd [nM] | koff [s⁻¹] | kon [M⁻¹ s⁻¹] | binding result | Binder
679 | 0.189 | 278000 | – | Compound AQ (Fc fusion) ISCGSPPPILNGRISYYSTPIAVGTVIRYSCSGTFRLIGEKSLLCITKDKVDGTWDKPAPKCEYFNKYSSCPEPIVPGGYKIRGSTPYRHGDSVTFACKTNFSMNGQKSVWCQANNMWGPTRLPTCVSVFPGGGGSDAAVECPPCPAPPVAGPSVFLFPPKPKDTLMISRTPEVTCVVVDVSQEDPEVQFNWYVDGVEVHNAKTKPREEQFNSTYRVVSVLTVLHQDWLNGKEYKCKVSNKGLPSSIEKTISKAKGQPREPQVYTLPPSQEEMTKNQVSLTCLVKGFYPSDIAVEWESNGQPENNYKTTPPVLDSDGSFFLYSRLTVDKSRWQEGNVFSCSVMHEALHNHYTQKSLSLSLGK
– | – | – | no binding (tested: 2 uM) | Compound AP (Fc fusion) VECPPCPAPPVAGPSVFLFPPKPKDTLMISRTPEVTCVVVDVSQEDPEVQFNWYVDGVEVHNAKTKPREEQFNSTYRVVSVLTVLHQDWLNGKEYKCKVSNKGLPSSIEKTISKAKGQPREPQVYTLPPSQEEMTKNQVSLTCLVKGFYPSDIAVEWESNGQPENNYKTTPPVLDSDGSFFLYSRLTVDKSRWQEGNVFSCSVMHEALHNHYTQKSLSLSLGKGGGGAGGGGAGGGAGGGGSEDCNELPPRRNTEILTGSWSDQTYPEGTQAIYKCRPGYRSLGNVIMVCRKGEWVALNPLRKCQKRPCGHPGDTPFGTFTLTGGNVFEYGVKAVYTCNEGYQLLGEINYRECDTDGWTNDIPICEVVKCLPVTAPENGKIVSSAMEPDREYHFGQAVRFVCNSGYKIEGDEEMHCSDDGFWSKEKPKCVEISCKSPDVINGSPISQKIIYKENERFQYKCNMGYEYSERGDAVCTESGWRPLPSCEEKS
744 | 0.18 | 242000 | – | Compound AC (Fc fusion) ISCGSPPPILNGRISYYSTPIAVGTVIRYSCSGTFRLIGEKSLLCITKDKVDGTWDKPAPKCEYFNKYSSCPEPIVPGGYKIRGSTPYRHGDSVTFACKTNFSMNGQKSVWCQANNMWGPTRLPTCVSVFPGGGGSDAAVECPPCPAPPVAGPSVFLFPPKPKDTLMISRTPEVTCVVVDVSQEDPEVQFNWYVDGVEVHNAKTKPREEQFNSTYRVVSVLTVLHQDWLNGKEYKCKVSNKGLPSSIEKTISKAKGQPREPQVYTLPPSQEEMTKNQVSLTCLVKGFYPSDIAVEWESNGQPENNYKTTPPVLDSDGSFFLYSRLTVDKSRWQEGNVFSCSVMHEALHNHYTQKSLSLSLGKGGGGAGGGGAGGGAGGGGSEDCNELPPRRNTEILTGSWSDQTYPEGTQAIYKCRPGYRSLGNVIMVCRKGEWVALNPLRKCQKRPCGHPGDTPFGTFTLTGGNVFEYGVKAVYTCNEGYQLLGEINYRECDTDGWTNDIPICEVVKCLPVTAPENGKIVSSAMEPDREYHFGQAVRFVCNSGYKIEGDEEMHCSDDGFWSKEKPKCVEISCKSPDVINGSPISQKIIYKENERFQYKCNMGYEYSERGDAVCTESGWRPLPSCEEKS
